From patent US20100210509A1, “LONG ACTING HYALURONIC ACID - PEPTIDE CONJUGATE” (Postech Academy-Industry Foundation, priority 2007, published 2010)
Where no end group is shown, it is not given here. [ ]: non-standard residue; d: D form.

What was measured:
FPRL1 receptor [1] = biological target: T1, FPRL1 receptor (Homo sapiens, UniProt P25090); assay: Co-treatment with antagonistic peptide, pERK Western blot in RBL-2H3/FPRL1 cells; assay type: cell-based; settings: RBL-2H3/FPRL1 cells stimulated 5 min with CWRYMVm or HA-CWRYMVm conjugates (5, 8, 23)
T1 construct: expressed in transfected cells; host or cells: RBL-2H3 (rat basophilic leukemia) cells over-expressing FPRL1, kept under G418 selection
T1 sequence (P25090 1-351): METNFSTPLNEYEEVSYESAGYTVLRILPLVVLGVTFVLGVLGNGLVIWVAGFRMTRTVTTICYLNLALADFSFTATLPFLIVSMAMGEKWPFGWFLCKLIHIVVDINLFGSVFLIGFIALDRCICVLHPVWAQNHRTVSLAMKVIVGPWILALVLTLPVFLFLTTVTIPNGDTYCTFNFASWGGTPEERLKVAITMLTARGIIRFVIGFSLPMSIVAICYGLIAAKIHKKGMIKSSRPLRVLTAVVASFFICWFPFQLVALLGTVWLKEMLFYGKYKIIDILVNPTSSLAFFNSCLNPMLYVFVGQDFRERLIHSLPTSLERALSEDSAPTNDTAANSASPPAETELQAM
Method: In order to investigate the effect of co-treatment with antagonistic peptide (C—WRWWWW (SEQ ID NO: 6), WRW4 (SEQ ID NO: 2) on the binding characteristics of the conjugates of peptide with HA-AEMA to FPRL1 receptor, the RBL-2H3/FPRL1 cells were stimulated with a control (no treatment), peptide (CWRYMVm, SEQ ID NO: 5), and three kinds of conjugate samples for 5 minutes in the presence and absence of C-WRWWWW (SEQ ID NO: 6), ([…], competitor for FPRL1 binding). The other procedures including electrophoresis and immunoblot analysis for Western blot was repeated in the same way as described above.

[2] = Dissolution of peptide in serum; assay type: physicochemical; settings: fetal bovine serum
Method: In order to investigate the effect of HA conjugation on the serum stability of peptide, raw peptide and three kinds of conjugate samples were dissolved in 0.5 mL of water and mixed with 0.5 mL of fetal bovine serum (FBS), respectively. In conjugates of peptide with HA derivative, the number of peptide molecules per single HA chain was 5, 19, and 33, respectively. […] Then, the solutions were incubated at 37° C. for 96 hours. The remaining amount of peptide was measured by GPC analysis after incubation for 12, 24, 48, 72, and 96 hours. Three replicates were carried out.

FPRL1 receptor [3] = biological target: T1, FPRL1 receptor; assay: pERK level by Western blot in FPRL1 over-expressing RBL-2H3 cells after stimulation; assay type: cell-based
Method: In order to investigate the effect of HA conjugation on the signal transduction activity of peptide, three kinds of samples were prepared, the raw peptide, conjugate of peptide with HA-AMEA, and conjugate of peptide with HA-AEMA after hyaluronidase treatment. In the conjugate samples, the number of peptide molecules per single HA derivative chain was 5, 8, and 23, respectively. Each sample of conjugate of peptide with HA-AEMA (0.4 mL, 1 mg/mL) was divided into two aliquots. One aliquot was mixed with 0.2 mL of hyaluronidase solution (400 units/mL) and the other was mixed with 0.2 mL of water. Then, the solutions were incubated at 37° C. overnight for the complete enzymatic degradation of HA. Three replicates were carried out for the following bioactivity tests measuring the intracellular level of pERK and calcium ion. […]
The prepared cells were aliquoted into 1×10^6 cells and stimulated with a control (no treatment), peptide (CWRYMVm, SEQ ID NO: 5), HA-AEMA, the mixture of peptide and HA-AEMA, and three kind of conjugate samples with and without hyaluronidase treatment. […] Protein concentrations in the lysates were determined by Bradford protein assay. […]
The data are expressed as means±S.D. from several separate experiments. […]

| Substance | intracellular level of pERK on co-treatment with antagonistic peptide (FPRL1 receptor [1]) | dissolution in serum [2] | pERK level normalized to peptide alone (100%) (FPRL1 receptor [3]; RBL-2H3/FPRL1 cells, 5 min stimulation, same peptide amount, without hyaluronidase treatment) | stimulation time of highest elevation of intracellular pERK level (FPRL1 receptor [3]; stimulation up to 30 min, Western blot) |
| --- | --- | --- | --- | --- |
| Trp-Arg-Trp-Trp-Trp-Trp (WRWWWW; also: conjugated with hyaluronic acid derivative) [FPRL1 antagonist peptide] | did not increase at all |  |  |  |
| Cys-Trp-Arg-Tyr-Met-Val-DMet (CWRYMV[dM]; also: conjugated with hyaluronic acid derivative) [CWRYMVm, Agonistic peptide for FPRL1 receptor; WRYMVm modified with cysteine] |  | not dissolved in serum completely | 100% | 5 min |
